Molecular target: CagV (Helicobacter pylori (endogenous in strain 26695))
Test: cross-linking; 5 mM DSP added to wild‐type H. pylori extract (0.1% DDM, 0.2% sarcosine) on ice for 25 min; SDS/PAGE and western blot with anti‐CagV antibody (mice); ΔcagV extract as control

## CagV (natural protein)
  stoichiometry N: 2

Reference: paper PMC5494299
